Test results published in patent JP2008058208A (dated 2008).

B1: 陽性クローン株No.20のファージ抗体 (scFv No.20 displayed on M13 phage) (scFv)
scFv: MAQVKLPESGAELVKPGASVKLSCTPSGFNIKDTYIHWVRQRPGQGLEWIGRIDPANGHTRYAPKFQGKATLTADASSNTAYLHLSSLTSEDTAVYYCPRIVWYSGGYAMDYWGQGTTVTVSSGGGGSGGGGSGGGGSDIELTQSPSSMYASLGERVTITCKASQDINSYLSWFQQKPGKSPKTLIYRANRLVDGVPSRFSGSGSGQDYSLTISSLKYEDMGIYYCLQYDEFPLTFGGGTKLEIKRAA
notes: not shown: C-terminal fusion to the phage coat protein from phagemid pCANTAB5E; not spelled out
B2: 抗CRPscFv抗体No.20 (His-tagged scFv, His20) (scFv)
scFv: B1 scFv
notes: Mouse scFv (VH-(G4S)3 linker-VL) from an immune phage library, expressed in E. coli HB2151 and purified by the His tag; also called No.20抗体; His20 scFv抗体; not shown: C-terminal 6x histidine tag added by a standard method
B3: 陽性クローン株No.40のファージ抗体 (scFv No.40 displayed on M13 phage) (scFv)
scFv: MAQVKLQQSGAEVVKPGASVKLSCKASGYTFIFYHIYWVKQRPGQGLEWIGGINPRSGGTNLNEKFKSKATLTVDKSSSTAYMQLNGLTSEDSAFYYCTRSGTTYDYALDYWGQGTTVTVSSGGGGSGGGGSGGGGSDIELTQSPAIMAASLGQKVTMTCSASSSMSSSYLHWYQQKSGASPKPLIHRTSTLASGVPARFSGSGSGTSYSLTISSVEAEDDATYYCQQWSGYPLTFGGGTKLEIKRAAA
notes: as for B1
B4: 抗CRPscFv抗体No.40 (His-tagged scFv, His40) (scFv)
scFv: B3 scFv
notes: Mouse scFv (VH-(G4S)3 linker-VL) from an immune phage library, expressed in E. coli HB2151 and purified by the His tag; also called No.40抗体; not shown: C-terminal 6x histidine tag added by a standard method

Assays:
C−反応性タンパク(CRP), ヒトCRP抗原 [1] = target: T1, C−反応性タンパク(CRP), ヒトCRP抗原 (human, UniProt P02741 19-224); test: phage ELISA on plate-coated CRP, detected with HRP/anti-M13
T1 sequence (looked up): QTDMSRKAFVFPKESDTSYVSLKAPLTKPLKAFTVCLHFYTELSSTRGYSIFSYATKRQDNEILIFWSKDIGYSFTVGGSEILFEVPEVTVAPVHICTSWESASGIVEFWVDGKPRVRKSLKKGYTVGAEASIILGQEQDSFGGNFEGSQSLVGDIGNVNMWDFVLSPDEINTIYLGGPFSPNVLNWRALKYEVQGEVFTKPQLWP

Protein A = target: T2, Protein A (Staphylococcus aureus, UniProt P38507 37-477); test: immunochromatography test strip, His20 as capture and as gold-colloid label; samples of Protein A and S. aureus cell suspensions
T2 construct: also called プロテインA; Staphylococcus aureusが産生するProtein A

C−反応性タンパク(CRP), ヒトCRP抗原 [2] = target: T1, C−反応性タンパク(CRP), ヒトCRP抗原; test: ELISA of His-tag purified scFv on CRP

Binder	binding result (C−反応性タンパク(CRP), ヒトCRP抗原 [1])	further results
B1	binds	
B2		binding result (Protein A): no binding
B3	binds	
B4		binding result (C−反応性タンパク(CRP), ヒトCRP抗原 [2]): binds
